Series [1] addresses Recombinant human transferrin (human) (UniProt P02787). The series is described as follows: SEC-MALS; Superdex 200 Increase 10/30 GL, 4 °C, mobile phase 38 mM NaH2PO4, 12 mM Na2HPO4, 150 mM NaCl, 200 ppm NaN3, pH 7.4; samples from all tested formulation conditions.
In a further series the test system is P02787. The series is described as follows: SAXS; concentration series at pH 4.0-8.0 and with NaCl or arginine at pH 5.0/6.5; estimated MW from scattering; volume fractions from OLIGOMER with monomer crystal structures and a SASREFMX dimer model. Particulars: other: SAXS.

“And” between values parts separate entries of the source, which are not always exact repeats. Identical values can stand only once.

Recombinant human transferrin, sequence (P02787 20-698): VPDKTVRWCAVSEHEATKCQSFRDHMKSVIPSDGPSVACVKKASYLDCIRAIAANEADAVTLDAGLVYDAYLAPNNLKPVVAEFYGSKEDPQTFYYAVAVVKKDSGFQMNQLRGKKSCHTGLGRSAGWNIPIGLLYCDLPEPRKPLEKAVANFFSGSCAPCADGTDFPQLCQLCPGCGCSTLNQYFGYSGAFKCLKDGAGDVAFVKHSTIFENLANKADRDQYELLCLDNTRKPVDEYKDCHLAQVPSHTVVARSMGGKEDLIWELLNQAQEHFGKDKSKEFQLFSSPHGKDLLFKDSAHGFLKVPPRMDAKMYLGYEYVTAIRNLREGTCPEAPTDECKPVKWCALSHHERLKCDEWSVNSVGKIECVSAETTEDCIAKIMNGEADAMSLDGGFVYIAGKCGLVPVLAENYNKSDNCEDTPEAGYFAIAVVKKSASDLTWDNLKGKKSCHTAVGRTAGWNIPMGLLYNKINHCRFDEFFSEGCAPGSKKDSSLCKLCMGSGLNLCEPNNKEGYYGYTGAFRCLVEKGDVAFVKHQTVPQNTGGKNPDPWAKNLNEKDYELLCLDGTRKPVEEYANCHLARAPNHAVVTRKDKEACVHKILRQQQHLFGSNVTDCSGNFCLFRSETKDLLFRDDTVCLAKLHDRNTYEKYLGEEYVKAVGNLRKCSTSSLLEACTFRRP

In the case of “Recombinant human transferrin (from UniProt P02787 20-698) (natural protein)”, in series [1], the percent dimer worked out at 12%; the percent trimer was found to be 2%; the stoichiometry N (commonly the number of molecules, sites or subunits per partner or assembly) was 2 and 3.
In the case of Recombinant human transferrin, in the series on P02787, the volume fraction of dimer + aggregates (NaCl) was 0.5, the volume fraction of dimer + aggregates (acetate) is 0.2, the volume fraction of dimer + aggregates (arginine) was 0.4 and the volume fraction of dimer + aggregates (histidine) was 0.2.
